The results in this text go back to publication PMC3931812.

Among the targets are BSGPER_(150–175) (human) (UniProt Q99527); BSGPER_(242–259) (human) (UniProt Q99527); BSGPER_(330–351) (human) (UniProt Q99527); BSGPER_(83–93) (human) (UniProt Q99527).
Common to all, as to experiment: other fluorescence titration; Ca2+ titration at saturating CaM: 0.5 µM FRET biosensor, 2 µM X-Rhod5F, 0.1 mg/mL BSA, 0.25 mM Br2BAPTA (3 mM BAPTA and 700 µM CaM for the SMD1 biosensors), 25 mM Tris, 100 mM KCl, pH 7.5, 22°C; start nominally Ca2+-free; free Ca2+ from X-Rhod5F; EC50(Ca2+) from Hill fits

In the case of “Calmodulin (CaM), recombinant, from the rat CaMI gene (from UniProt P0DP29 1-149) (natural protein)”, the EC50(Ca2+) of complex formation is 2380 nM with BSGPER_(150–175) (human), 5150 nM with BSGPER_(242–259) (human) and 750 nM with BSGPER_(330–351) (human). In the test with BSGPER_(83–93) (human), this substance had an EC50(Ca2+) of complex formation, species 1 of 130 nM. The substance also came in with an EC50(Ca2+) of complex formation, species 2 with BSGPER_(83–93) (human) of 3710 nM.
